Measured values from article PMC12388516.

Molecular target: bovine thrombin (thrombin reagent) (bovine)

Substance	thrombin time (TT) clotting time of human plasma with bovine thrombin; hirudin HV1 at 0.32 and 3.2 µmol/L; expressed at 30 °C; cut-off 300 s [s]	thrombin time (TT) clotting time of human plasma with bovine thrombin; HLF1V at 0.32 and 3.2 µmol/L; expressed at 30 °C; cut-off 300 s [s]
recombinant hirudin HV1 expressed in E. coli strain SHuffle T7 (natural protein)	> 300	–
recombinant hirudin-like factor HLF1V expressed in E. coli strain SHuffle T7 (natural protein)	–	> 300
